Measurements published in PMC5851990 (2018).

Columns and labels:
[1] = target: chicken Ten2^ecto P1680L mutant (residues 596-2802) (chicken, UniProt Q9DER5 596-2802, P1680L); test: SPR
[2] = target: chicken Ten2^ecto wild type (residues 596-2802) (chicken, UniProt Q9DER5 596-2802); test: SPR

Kd [1]: 740 nM
Kd [2]: 790 nM
B1: mouse Lphn2^Lec (Latrophilin 2 lectin domain, residues 30-137) (domain or fragment)
chain: ALPFGLVRRELSCEGYSIDLRCPGSDVIMIESANYGRTDDKICDADPFQMENTDCYLPDAFKIMTQRCNNRTQCIVVTGSDVFPDPCPGTYKYLEVQYECVPYSKMLV
modifications: biotinylated enzymatically in vivo at a C-terminal AviTag
